Among the data in paper PMC11651597, “Characterization of a novel subfamily 1.4 lipase from Bacillus licheniformis IBRL-CHS2: Cloning and expression optimization” (PLOS ONE, 2024) are Km values, retold here.

Substrate in the series: CCCCCCCCCCCC(=O)Oc1ccc([N+](=O)[O-])cc1
Kind of series: purified protein. The note with it: 0.1-1 mM substrate, standard assay pH 7 phosphate buffer, 35 °C, 0.01% Triton X-100, 0.1% polyvinyl alcohol, DMSO. It is filed as biochemical, Bacillus licheniformis.

B1: MLipA (mature LipA lipase of B. licheniformis IBRL-CHS2) (Bacillus licheniformis DSM 13 = ATCC 14580) (protein)
chain: ASHNPVVMVHGIGGADYNFIGIKSYLQSQGWTSSELYAINFIDKTGNNINNAPRLSEYIKRVLNQTGASKVDIVAHSMGGANTLYYIKNLDGADKVGHVVTLGGANRLVTNTAPQNDKISYTSIYSTSDYIVLNSLSKLDGANNVQISGVSHVGLLFSSKVNALIKDGLTASGK
notes: signal peptide (residues 1-30) removed; E. coli BL21 (DE3); IMAC purified
Consider B1, for which the Km was determined as 360 µM.
